According to patent US20040005691:
Changes are numbered by the printed parent chain. Names and notes keep the numbering of the source. Values joined by “and” are separate entries in the source; they are usually repeats but may differ in a detail not shown here. Identical values can stand only once.

B1: P33K-BACE expressed in E. coli from the pET11a-P33K-BACE construct (protein)
chain: MASMTGGQQMGRGSMAGVLPAHGTQHGIRLPLRSGLGGAPLGLRLPRETDEEPEEKGRRGSFVEMVDNLRGKSGQGYYVEMTVGSPPQTLNILVDTGSSNFAVGAAPHPFLHRYYQRQLSSTYRDLRKGVYVPYTQGKWEGELGTDLVSIPHGPNVTVRANIAAITESDKFFINGSNWEGILGLAYAEIARPDDSLEPFFDSLVKQTHVPNLFSLQLCGAGFPLNQSEVLASVGGSMIIGGIDHSLYTGSLWYTPIRREWYYEVIIVRVEINGQDLKMDCKEYNYDKSIVDSGTTNLRLPKKVFEAAVKSIKAASSTEKFPDGFWLGEQLVCWQAGTTPWNIFPVISLYLMGEVTNQSFRITILPQQYLRPVEDVATSQDDCYKFAISQSSTGTVMGAVIMEGFYVVFDRARKRIGFAVSACHVHDEFRTAAVEGPFVTLDMEDCGYNIPQTDES
B2: human BACE expressed in E. coli from pET11a-BACE, without the P33K mutation (protein)
chain: B1 chain with K56P
B3: BACE construct Asp2-2L-TM-His6 expressed in CHO cells (protein)
chain: TQHGIRLPLRSGLGGAPLGLRLPRETDEEPEEPGRRGSFVEMVDNLRGKSGQGYYVEMTVGSPPQTLNILVDTGSSNFAVGAAPHPFLHRYYQRQLSSTYRDLRKGVYVPYTQGKWEGELGTDLVSIPHGPNVTVRANIAAITESDKFFINGSNWEGILGLAYAEIARPDDSLEPFFDSLVKQTHVPNLFSLQLCGAGFPLNQSEVLASVGGSMIIGGIDHSLYTGSLWYTPIRREWYYEVIIVRVEINGQDLKMDCKEYNYDKSIVDSGTTNLRLPKKVFEAAVKSIKAASSTEKFPDGFWLGEQLVCWQAGTTPWNIFPVISLYLMGEVTNQSFRITILPQQYLRPVEDVATSQDDCYKFAISQSSTGTVMGAVIMEGFYVVFDRARKRIGFAVSACHVHDEFRTAAVEGPFVTLDMEDCGYNIPQTDESHHHHHH

Biological target: T1, substrate S-1 (SEISY-EVEFRWKK)
T1 chain: SEISYEVEFRWKK

Protein	Activity Assays (Fluorescence Peak Area) (fluorescence peak area)	enzyme activity compared with BACE
B1	38.4 and 26.5 and 32.8	the P33K-BACE has essentially the same activity of BACE
B2	31 and 45.8 and 31.9	–
B3	83.3 and 85.2 and 78.1	–
